Measurements as given in US20180326085A1 (Merck KGaA, published 2018).
Changes are numbered by the printed parent chain.

B1: oa 225-L (antibody, V domains shown)
VH: EVQLVQSGAEVKKPGASVKVSCKASGFSLTNYGVHWMRQAPGQGLEWIGVIWRGGNTDYNTPFTSRVTITSDKSTSTAYMELSSLRSEDTAVYYCARALTYYDYEFAYWGQGTLVTVSS
VL: DIQMTQSPSSLSASVGDRVTITCRASQSIGTNIHWYQQKPGKAPKLLIKYASESISGVPSRFSGSGYGTDFTLTISSLQPEDVATYYCQQNNNWPTTFGQGTKVEIK
notes: one-armed (monovalent) anti-EGFR SEED molecule
B2: B10v5x225-M (bispecific c-MET x EGFR SEEDbody) (bispecific antibody, V domains shown)
VH 1: not shown
VL 1: EPVLTQPPSVSVAPGETATIPCGGDSLGSKIVHWYQQRPGQAPLLVVYDDAARPSGIPERFSGSKSGTTATLTISSVEAGDEADYFCQVYDYHSDVEVFGGGTKLTVLGQPKAA
VH 2: B1 VH with R53S
VL 2: B1 VL with N92Y
notes: SEEDbody format (IgG1 hinge-CH2-SEED CH3)
B3: B10x225-H (bispecific antibody, V domains shown)
VL (c-MET arm): QSVLTQPPSTSGTPGQRVTISCFGSSSNVGVNTVNWYRQLPGTAPKLLIYDNNLRPSGVPERFSGSKSGTSASLAITGLQAEDEGDYYCQSYDSSLSDVVFGGGTKLTVLGQPKAG
VH (c-MET arm): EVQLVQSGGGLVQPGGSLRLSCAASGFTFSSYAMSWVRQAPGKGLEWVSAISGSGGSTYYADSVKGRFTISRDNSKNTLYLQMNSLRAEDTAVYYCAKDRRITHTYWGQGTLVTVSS
VL (EGFR arm): B1 VL with N93E, T96N
VH (EGFR arm): B1 VH with R53S, T100D
notes: c-MET x EGFR SEED bispecific
B4: oa225-M (antibody, V domains shown)
VH: B1 VH with R53S
VL: B1 VL with N92Y
notes: as for B1
B5: CS06x225-M (bispecific antibody, V domains shown)
VL (c-MET arm): QLVLTQSPSVSVAPGKTARITCGGNNIRNVGVHWYQKKPGQAPILVVYDDDDRPSGVPERFSGSNSGNTATLTISRVEAGDEADYYCQVWDSATDQRVFGGGTKLTVLGQPKAG
VH (c-MET arm): QVQLQQSGAEVKKPGSSAKVSCKASGGTFSSNAISWVRQAPGQGLEWMGGIIPIFGTAIYAQKFQGRVTITADESTSTAYMELSSLRSEDTAVYYCARDQRGYYYYYYYGMDVWGQGTTVTVSS
VL (EGFR arm): B1 VL with N92Y
VH (EGFR arm): B1 VH with R53S
notes: c-MET x EGFR SEED bispecific
B6: B10x225-M (bispecific antibody, V domains shown)
VL (c-MET arm): B3 VL (c-MET arm)
VH (c-MET arm): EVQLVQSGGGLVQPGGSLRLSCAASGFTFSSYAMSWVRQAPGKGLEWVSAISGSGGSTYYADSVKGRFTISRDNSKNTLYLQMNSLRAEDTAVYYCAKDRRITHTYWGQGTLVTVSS
VL (EGFR arm): B1 VL with N92Y
VH (EGFR arm): B1 VH with R53S
notes: c-MET x EGFR SEED bispecific
B7: oa 425 (antibody, V domains shown)
VH: QVQLVQSGAEVKKPGASVKVSCKASGYTFTSHWMHWVRQAPGQGLEWIGEFNPSNGRTNYNEKFKSKATMTVDTSTNTAYMELSSLRSEDTAVYYCASRDYDYDGRYFDYWGQGTLVTVSS
VL: DIQMTQSPSSLSASVGDRVTITCSASSSVTYMYWYQQKPGKAPKLLIYDTSNLASGVPSRFSGSGSGTDYTFTISSLQPEDIATYYCQQWSSHIFTFGQGTKVEIKR
notes: as for B1
B8: B10x425 (bispecific antibody, V domains shown)
VL (c-MET arm): B3 VL (c-MET arm)
VH (c-MET arm): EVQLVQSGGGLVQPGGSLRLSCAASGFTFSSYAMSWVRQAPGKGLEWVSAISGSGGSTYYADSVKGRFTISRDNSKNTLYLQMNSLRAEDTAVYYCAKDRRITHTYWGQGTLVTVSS
VL (EGFR arm): B7 VL
VH (EGFR arm): B7 VH
notes: c-MET x EGFR SEED bispecific
B9: oa B10 (antibody, V domains shown)
VH: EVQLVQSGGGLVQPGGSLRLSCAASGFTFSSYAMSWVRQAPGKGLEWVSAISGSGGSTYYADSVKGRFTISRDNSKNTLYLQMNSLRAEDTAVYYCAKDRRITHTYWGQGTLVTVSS
VL: QSVLTQPPSTSGTPGQRVTISCFGSSSNVGVNTVNWYRQLPGTAPKLLIYDNNLRPSGVPERFSGSKSGTSASLAITGLQAEDEGDYYCQSYDSSLSDVVFGGGTKLTVLG
notes: one-armed (monovalent) anti-c-MET SEED molecule; also called one-armed B10

What was measured:
EGFR on cells [1] = target: T1, EGFR on cells (human, UniProt P00533); assay: flow cytometry, A431 cells (c-MET+ EGFR+++)
T1 construct: endogenous receptor on the cell surface; for A549 cells m5 is used; also called on NCI-H441, EBC-1, A431, MKN-45, HepG2 or T47D cells (cell line under assay)

EGFR on cells [2] = target: T1, EGFR on cells; assay: flow cytometry, HepG2 cells (c-MET+ EGFR+)
c-MET on cells [3] = target: T2, c-MET on cells (human, UniProt P08581); assay: flow cytometry, SK-MEL2 cells (c-MET+ EGFR-)
T2 construct: endogenous receptor on the cell surface; for A549 cells m4 is used; also called HGFR; on NCI-H441, EBC-1, A431, MKN-45, SK-MEL2 or HepG2 cells (cell line under assay)

EGFR on cells [4] = target: T1, EGFR on cells; assay: flow cytometry, EBC-1 cells (c-MET+++ EGFR++)
EGFR on cells [5] = target: T1, EGFR on cells; assay: flow cytometry, MKN-45 cells (c-MET+++ EGFR++)
[6] = target: T3, EGFR (epidermal growth factor receptor) on A549 cells (human, UniProt P00533 25-1210); assay: flow cytometry, A549 cells (c-MET+ EGFR++)
T3 construct: whole, on cells; Endogenous receptor of A549 cells; phosphorylation read out in cell lysates

[7] = target: T4, EGFR (soluble extracellular domain) (human, UniProt P00533); assay: BLI (Octet), antibody on anti-human Fc biosensors, soluble EGFR ECD as analyte
T4 construct: soluble extracellular domain; also called Human EGFR extracellular domain, R&D Systems 1095-ER

[8] = target: T5, c-MET and EGFR co-expressed on cells (human, UniProt P08581;P00533); assay: flow cytometry, A431 cells (c-MET+ EGFR+++)
T5 construct: endogenous receptor on the cell surface; not a complex: two separate receptors on the same cell; used as target only for bispecific c-MET x EGFR molecules, whose cell staining cannot be split between the two arms; also called cells that carry both receptors: NCI-H441, EBC-1, A431, MKN-45, A549, HepG2 (cell line under assay)

[9] = target: T5, c-MET and EGFR co-expressed on cells; assay: flow cytometry, HepG2 cells (c-MET+ EGFR+)
[10] = target: T6, biotinylated recombinant human c-MET ECD (HGFR extracellular domain) (human, UniProt P08581 25-932, biotinylated (sites not given)); assay: BLI (Octet), antibody on anti-human Fc biosensors, soluble c-MET ECD as analyte
T6 construct: extracellular domain; also called human c-MET ECD-His

[11] = target: T5, c-MET and EGFR co-expressed on cells; assay: flow cytometry, EBC-1 cells (c-MET+++ EGFR++)
[12] = target: T5, c-MET and EGFR co-expressed on cells; assay: flow cytometry, MKN-45 cells (c-MET+++ EGFR++)
[13] = target: T5, c-MET and EGFR co-expressed on cells; assay: flow cytometry, A549 cells (c-MET+ EGFR++)
c-MET on cells [14] = target: T2, c-MET on cells; assay: flow cytometry, A431 cells (c-MET+ EGFR+++)
c-MET on cells [15] = target: T2, c-MET on cells; assay: flow cytometry, HepG2 cells (c-MET+ EGFR+)
c-MET on cells [16] = target: T2, c-MET on cells; assay: flow cytometry, EBC-1 cells (c-MET+++ EGFR++)
c-MET on cells [17] = target: T2, c-MET on cells; assay: flow cytometry, MKN-45 cells (c-MET+++ EGFR++)
[18] = target: T7, c-MET (hepatocyte growth factor receptor) on A549 cells (human, UniProt P08581 25-1390); assay: flow cytometry, A549 cells (c-MET+ EGFR++)
T7 construct: whole, on cells; Endogenous receptor of A549 cells; phosphorylation read out in cell lysates; also called HGFR

Binder	MFI at 100 nM (EGFR on cells [1])	MFI at 100 nM (EGFR on cells [2])	MFI at 100 nM (c-MET on cells [3])	binding result (c-MET on cells [3])	MFI at 100 nM (EGFR on cells [4])	MFI at 100 nM (EGFR on cells [5])	MFI at 100 nM [6]	Kd [7] [nM]	koff [7] [s⁻¹]	kon [7] [M⁻¹ s⁻¹]	MFI at 100 nM [8]	MFI at 100 nM [9]	Kd [10] [nM]	koff [10] [s⁻¹]	kon [10] [M⁻¹ s⁻¹]	MFI at 100 nM [11]	MFI at 100 nM [12]	MFI at 100 nM [13]	further results
B1	1260	22	17	no binding (tested: 100 nM)	137	83	91	220	0.14	610000	–	–	–	–	–	–	–	–	–
B2	–	–	457	–	–	–	–	4.7	0.017	3.6e+06	1290	793	0.37	0.00015	400000	2280	1270	383	–
B3	–	–	64	–	–	–	–	–	–	–	1980	100	–	–	–	948	1320	454	–
B4	1500	40	19	no binding (tested: 100 nM)	189	144	138	4.4	0.016	3.7e+06	–	–	–	–	–	–	–	–	–
B5	–	–	236	–	–	–	–	3.9	0.018	4.6e+06	1170	330	0.21	0.00022	1.1e+06	1870	1470	264	–
B6	–	–	53	–	–	–	–	–	–	–	1480	84	–	–	–	671	1790	572	–
B7	1150	50	17	no binding (tested: 100 nM)	212	184	170	22	0.012	530000	–	–	–	–	–	–	–	–	–
B8	–	–	25	–	–	–	–	–	–	–	1120	101	–	–	–	361	1260	270	–
B9	–	–	39	–	–	–	–	–	–	–	–	–	12	0.0012	100000	–	–	–	MFI at 100 nM (c-MET on cells [14]): 103; MFI at 100 nM (c-MET on cells [15]): 69; MFI at 100 nM (c-MET on cells [16]): 952; MFI at 100 nM (c-MET on cells [17]): 916; MFI at 100 nM [18]: 130
